Source: patent CN117088975A

Molecular target: ALB蛋白(天然提取)
Test: AMC sensor, antibody immobilised at 10 ug/ml, ALB in gradient dilution in PBST

Kd: 1.85 nM
koff: 0.00241 s⁻¹
kon: 1.3e+06 M⁻¹ s⁻¹
B1: Anti-ALB-2G9mut2 (antibody, mouse IgG1, kappa, V domains shown)
VH: QVQLQQSGAELVRPGSSVKISCKASGYAFSNYWMNWVKQRPGQGLEWIGQIYPGDGDTYYNGRFKGKATITADKSPTTAYMQLSSLTSEDSAVYVCARGVLLGSFDYWGQGTTLTVSS
VL: QIVLTQSPAIMSASPGEKVTMTCSASSSVSYMHWYQQKSGTSPKRWIYDTSKLASGVPVRFSGSGSGTSYSLTIRSMEAEDAATYYCQQWGSNPLTFGAGTKLELKR
